Experimental data taken from US6713249B2, “Cell matrix plaques of initial bone formation” (Barnes-Jewish Hospital, priority 1998, dated 2004).

Test system: αvβ3 integrin plaque-like cell/matrix areas in human preosteoblasts
Test: Immunocytochemical localization of cell surface αvβ3 integrin plaques in non-permeabilized cells
Format: cell-based
Conditions: bone marrow stromal cells in osteogenic medium with 40 ng/ml OP-1 for 48 hours, non-strained, no Triton X-100; compare FIG. 1C with FIG. 2C
Protocol: Bone marrow stromal cells grown to semi-confluence and then exposed to osteogenic medium containing 10 mM of β-glycerophosphate, 50 μg/ml ascorbic acid and 40 ng/ml of osteogenic protein OP-1(32) also referred to as bone morphogenetic protein-7 (BMP-7), for 48 hours were defined as preosteoblasts. These preosteoblast cultures are characterized by alkaline phosphatase activity of 80,000 nmole pNPP/min./μg protein, osteopontin expression, absence of osteocalcin expression, and mineralization after 14 days in osteogenic media. […]
Immunocytochemical analysis essentially was performed as previously described (34). […] The results were analyzed either on Zeiss Fluorescent Microscope (Axioscope) using a 63× oil immersion lens or on a Zeiss laser confocal microscope using a 63× lens. […]
In order to examine whether mechanical strain has a qualitative and/or quantitative effect on the localization and expression level of integrins, near-confluent human preosteoblasts and osteoprogenitors were strained on Flexcell Strain Apparatus, as described in Methods. […] In the presence of Triton X-100, which leads to cell permeabilization and thus, allows examination of the distribution of intracellular as well as cell surface molecules, the αvβ3 integrin, as detected by an anti-human αvβ3 antibody, was localized along actin fibers and in small, granular structures adjacent to actin fibers (FIGS. 1A, 1B, 2A and 2B). […]

B1: OP-1: osteogenic protein OP-1, also referred to as bone morphogenetic protein-7 (BMP-7), component of the osteogenic medium (protein, UniProt P18075 293-431, looked up)
Bone morphogenetic protein 7: STGSKQRSQNRSKTPKNQEALRMANVAENSSSDQRQACKKHELYVSFRDLGWQDWIIAPEGYAAYYCEGECAFPLNSYMNATNHAIVQTLVHFINPETVPKPCCAPTQLNAISVLYFDDSSNVILKKYRNMVVRACGCH
number of the plaque-like cell/matrix areas of the αvβ3 expression: stimulation
